Experimental findings from PMC5262380, “Structural insights into the mechanism of the DEAH-box RNA helicase Prp43” (eLife, 2017) are described below.

Assay [1] has as its target ctPrp43 (DEAH-box RNA helicase Prp43 from Chaetomium thermophilum), wild type (C. thermophilum) (UniProt G0RY84).
The target is the same in assay [2]. This is another data set of the same source.
Assay [3] has as its target ctPrp43(Y348G, T350G) (C. thermophilum).
Assay [4] has as its target ctPrp43(R180G, F181G) (C. thermophilum).
Assay [5] concerns the target ctPrp43(R180G, F181G, Y348G, T350G) (C. thermophilum).
The target in assay [6] is ctPrp43(F181C, N623C) (C. thermophilum).

As to “ctNtr1(242-305), truncated G-patch construct of the C. thermophilum Ntr1 homolog (domain or fragment)”, the helicase activity (maximal unwinding velocity of a dsRNA with 3' overhang; 250 nM ctPrp43, 1.25 uM G-patch; ctPrp43 alone 0.54 nM/min) in assay [1] was determined as 1.98 nM/min. For the same substance, the ATPase activity kcat with five-fold excess of G-patch, no RNA (ctPrp43 alone 1.81 min^-1) in assay [2] is 0.0693 s⁻¹.

In assay [1], “ctPfa1(662-742), truncated G-patch construct of the C. thermophilum Pfa1 homolog (domain or fragment)” showed a helicase activity (maximal unwinding velocity of a dsRNA with 3' overhang; 250 nM ctPrp43, 1.25 uM G-patch; ctPrp43 alone 0.54 nM/min) of 60 nM/min. This substance registered an ATPase activity kcat with five-fold excess of G-patch, no RNA (ctPrp43-HL alone 6.19 min^-1) in assay [3] of 1.44 s⁻¹. Besides, the ATPase activity kcat with five-fold excess of G-patch, no RNA (ctPrp43-HT alone 13.21 min^-1) in assay [4] stood at 1.02 s⁻¹. In assay [5], this substance yielded an ATPase activity kcat with five-fold excess of G-patch, no RNA (ctPrp43-HT&HL alone 7.61 min^-1) of 1.89 s⁻¹. Besides, the ATPase activity kcat with five-fold excess of G-patch, no RNA (ctPrp43 alone 1.81 min^-1) in assay [2] came out at 0.605 s⁻¹. In assay [6], this substance yielded an ATPase activity kcat with five-fold excess of G-patch, no RNA (ctPrp43-IDSB alone 5.04 min^-1) of 3.32 s⁻¹.
